In patent US20120276124A1 (Sanofi, published 2012):

B1: hu2H11R35R74-PEG4-NHAc-DM4 (antibody, human IgG1, kappa, V domains shown)
VH: QVQLVQSGAEVVKPGASVKISCKASGYTFTAYYMHWVKQSPVQSLEWIGLVNPYNGFSSYNQKFQGKASLTVDRSSSTAYMELHSLTSEDSAVYYCAREFYGYRYFDVWGQGTAVTVSS
VL: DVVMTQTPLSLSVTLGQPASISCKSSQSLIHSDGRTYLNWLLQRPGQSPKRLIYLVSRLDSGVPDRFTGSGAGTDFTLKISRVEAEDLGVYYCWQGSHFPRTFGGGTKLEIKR
modifications: may carry L-DM4 through the AcNH-PEG4 linker; sites not stated; maytansinoid L-DM4 attached through the AcNH-PEG4 linker (NHS activated ester; sites not stated); average DAR (UV) 5.9 for the whole antibody
B2: hu2H11R35R74-PEG8-NHAc-DM4 (antibody, human IgG1, kappa, V domains shown)
VH: B1 VH
VL: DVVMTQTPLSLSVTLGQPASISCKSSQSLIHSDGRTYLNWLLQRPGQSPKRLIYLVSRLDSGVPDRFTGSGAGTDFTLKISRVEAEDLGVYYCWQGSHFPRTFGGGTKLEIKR
modifications: may carry L-DM4 through the AcNH-PEG8 linker; sites not stated; maytansinoid L-DM4 attached through the AcNH-PEG8 linker (NHS activated ester; sites not stated); average DAR (UV) 4.9 for the whole antibody
B3: hu2H11R35R74-PEG4-NMeAc-DM4 (antibody, human IgG1, kappa, V domains shown)
VH: B1 VH
VL: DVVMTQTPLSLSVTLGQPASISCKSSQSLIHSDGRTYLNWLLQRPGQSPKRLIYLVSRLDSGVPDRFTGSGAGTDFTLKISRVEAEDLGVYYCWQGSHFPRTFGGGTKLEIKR
modifications: may carry L-DM4 through the AcNMe-PEG4 linker; sites not stated; maytansinoid L-DM4 attached through the AcNMe-PEG4 linker (NHS activated ester; sites not stated); average DAR (UV) 5.4 for the whole antibody
B4: hu2H11R35R74-PEG4-Allyl-DM4 (antibody, human IgG1, kappa, V domains shown)
VH: B1 VH
VL: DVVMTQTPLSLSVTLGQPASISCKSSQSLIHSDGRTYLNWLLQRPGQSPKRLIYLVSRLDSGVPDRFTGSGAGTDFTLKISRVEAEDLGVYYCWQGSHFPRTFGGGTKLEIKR
modifications: may carry L-DM4 through the Allyl-PEG4 linker; sites not stated; maytansinoid L-DM4 attached through the Allyl-PEG4 linker (NHS activated ester; sites not stated); average DAR (UV) 5.3 for the whole antibody

Target: EphA2 receptor (UniProt P29317 24-976, limits assumed)
Assay: cell-based or functional assay

Chain of EphA2 receptor (P29317 24-976 limits assumed): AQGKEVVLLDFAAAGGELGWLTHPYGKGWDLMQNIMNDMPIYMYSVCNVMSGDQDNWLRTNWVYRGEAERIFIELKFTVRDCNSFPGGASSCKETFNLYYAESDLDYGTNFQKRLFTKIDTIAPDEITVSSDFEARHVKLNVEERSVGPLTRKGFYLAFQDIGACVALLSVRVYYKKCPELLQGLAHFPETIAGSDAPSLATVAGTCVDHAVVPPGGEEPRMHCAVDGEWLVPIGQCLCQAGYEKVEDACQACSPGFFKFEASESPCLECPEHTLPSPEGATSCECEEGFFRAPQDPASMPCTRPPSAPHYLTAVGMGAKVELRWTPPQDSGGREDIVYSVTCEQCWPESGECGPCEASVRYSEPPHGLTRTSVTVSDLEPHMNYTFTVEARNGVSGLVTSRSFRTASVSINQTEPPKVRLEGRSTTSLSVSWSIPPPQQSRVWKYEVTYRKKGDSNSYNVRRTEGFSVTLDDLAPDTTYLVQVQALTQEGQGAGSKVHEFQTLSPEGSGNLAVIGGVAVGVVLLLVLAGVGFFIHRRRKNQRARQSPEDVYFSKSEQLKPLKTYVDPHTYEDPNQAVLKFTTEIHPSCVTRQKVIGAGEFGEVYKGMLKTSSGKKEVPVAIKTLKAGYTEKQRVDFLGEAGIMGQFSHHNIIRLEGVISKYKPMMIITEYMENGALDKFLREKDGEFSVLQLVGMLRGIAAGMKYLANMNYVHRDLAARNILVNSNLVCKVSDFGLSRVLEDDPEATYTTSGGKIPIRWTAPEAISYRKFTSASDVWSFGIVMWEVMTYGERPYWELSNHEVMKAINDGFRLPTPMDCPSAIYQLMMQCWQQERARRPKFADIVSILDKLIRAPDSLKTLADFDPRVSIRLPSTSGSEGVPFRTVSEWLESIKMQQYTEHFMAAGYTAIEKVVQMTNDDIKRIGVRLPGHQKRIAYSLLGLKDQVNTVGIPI

Binder | IC50 [pM], +naked hu2H11R35R74 (1 uM); inhibition of growth of MDA-MB231 cells (14C-thymidine uptake) | IC50 [pM], conjugate alone; inhibition of growth of MDA-MB231 cells (14C-thymidine uptake) | ratio (IC50 +naked hu2H11R35R74 / conjugate alone)
B1 | 29700 pM | 147 pM | 202
B2 | 25000 pM | 400 pM | 62
B3 | 36400 pM | 217 pM | 168
B4 | 7820 pM | 161 pM | 49
